Laboratory results: patent EP2112167A2 (Genentech, Inc., dated 2009)

What was measured:
EGFR = target: T1, EGFR (UniProt P00533 25-645, limits assumed); assay: not described (cited: Fendly et al.)
T1 construct: also called ErbB1; epidermal growth factor receptor

ErbB4 = target: T2, ErbB4 (UniProt Q15303 26-649, limits assumed); assay: not described
T2 construct: also called HER4
T2 sequence (looked up): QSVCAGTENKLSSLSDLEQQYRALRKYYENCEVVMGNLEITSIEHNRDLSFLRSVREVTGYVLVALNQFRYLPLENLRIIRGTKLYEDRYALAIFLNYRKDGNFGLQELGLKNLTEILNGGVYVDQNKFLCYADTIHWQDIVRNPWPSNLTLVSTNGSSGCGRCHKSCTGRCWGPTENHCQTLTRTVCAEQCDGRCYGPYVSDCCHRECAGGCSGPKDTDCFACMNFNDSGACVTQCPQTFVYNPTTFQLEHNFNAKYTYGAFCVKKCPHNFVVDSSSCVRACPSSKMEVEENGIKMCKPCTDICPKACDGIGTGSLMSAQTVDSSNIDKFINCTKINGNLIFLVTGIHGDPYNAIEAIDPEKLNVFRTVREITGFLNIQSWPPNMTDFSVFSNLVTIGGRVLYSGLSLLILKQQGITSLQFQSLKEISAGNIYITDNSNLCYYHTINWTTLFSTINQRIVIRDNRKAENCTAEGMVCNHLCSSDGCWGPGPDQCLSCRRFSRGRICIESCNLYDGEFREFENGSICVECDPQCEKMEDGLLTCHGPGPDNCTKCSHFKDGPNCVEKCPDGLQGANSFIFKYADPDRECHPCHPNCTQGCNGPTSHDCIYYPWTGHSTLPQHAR

ErbB3 = target: T3, ErbB3 (human, UniProt P21860 20-1342); assay: not described
T3 construct: whole, on cells; In the co-immunoprecipitation it is the endogenous receptor of the cells (lysates); also called HER3
T3 sequence (P21860 20-1342): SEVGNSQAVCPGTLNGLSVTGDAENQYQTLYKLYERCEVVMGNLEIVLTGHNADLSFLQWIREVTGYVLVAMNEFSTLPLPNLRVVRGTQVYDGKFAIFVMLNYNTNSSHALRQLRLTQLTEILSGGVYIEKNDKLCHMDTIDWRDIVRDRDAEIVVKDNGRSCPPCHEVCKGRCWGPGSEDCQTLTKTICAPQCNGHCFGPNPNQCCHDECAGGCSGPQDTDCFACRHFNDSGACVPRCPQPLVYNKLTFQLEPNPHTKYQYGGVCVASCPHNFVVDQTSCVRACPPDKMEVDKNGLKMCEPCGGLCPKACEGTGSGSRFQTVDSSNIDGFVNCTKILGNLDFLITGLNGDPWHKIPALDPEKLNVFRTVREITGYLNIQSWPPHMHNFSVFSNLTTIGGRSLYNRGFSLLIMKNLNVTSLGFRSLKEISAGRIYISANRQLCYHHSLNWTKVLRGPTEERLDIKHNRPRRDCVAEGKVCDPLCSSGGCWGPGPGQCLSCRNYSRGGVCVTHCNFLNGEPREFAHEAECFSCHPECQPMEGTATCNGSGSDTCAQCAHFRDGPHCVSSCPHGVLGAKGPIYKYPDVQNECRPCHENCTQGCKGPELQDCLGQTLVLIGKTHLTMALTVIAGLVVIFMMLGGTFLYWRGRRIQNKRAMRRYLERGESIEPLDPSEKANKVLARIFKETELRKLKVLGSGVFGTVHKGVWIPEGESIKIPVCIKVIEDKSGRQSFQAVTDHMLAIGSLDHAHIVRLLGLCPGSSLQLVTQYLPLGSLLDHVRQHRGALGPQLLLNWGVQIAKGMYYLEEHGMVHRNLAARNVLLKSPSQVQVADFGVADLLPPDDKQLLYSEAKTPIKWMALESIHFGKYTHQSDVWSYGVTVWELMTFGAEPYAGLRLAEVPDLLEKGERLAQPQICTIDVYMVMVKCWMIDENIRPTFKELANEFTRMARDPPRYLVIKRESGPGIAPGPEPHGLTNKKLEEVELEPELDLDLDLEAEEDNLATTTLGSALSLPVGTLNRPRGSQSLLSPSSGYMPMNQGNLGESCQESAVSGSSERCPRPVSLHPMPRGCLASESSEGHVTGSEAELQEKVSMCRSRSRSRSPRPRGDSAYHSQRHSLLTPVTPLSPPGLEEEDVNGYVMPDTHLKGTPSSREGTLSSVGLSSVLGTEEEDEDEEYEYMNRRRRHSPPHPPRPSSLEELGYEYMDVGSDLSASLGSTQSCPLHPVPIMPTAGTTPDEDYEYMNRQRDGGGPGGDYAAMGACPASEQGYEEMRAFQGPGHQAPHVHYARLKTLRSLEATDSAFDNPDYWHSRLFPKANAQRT

binding result (EGFR): no binding | binding result (ErbB4): no binding | binding result (ErbB3): no binding
B1: murine monoclonal antibody 2C4 (antibody, V domains shown)
VH: EVQLQQSGPELVKPGTSVKISCKASGFTFTDYTMDWVKQSHGKSLEWIGDVNPNSGGSIYNQRFKGKASLTVDRSSRIVYMELRSLTFEDTAVYYCARNLGPSFYFDYWGQGTTLTVSS
VL: DTVMTQSHKIMSTSVGDRVSITCKASQDVSIGVAWYQQRPGQSPKLLIYSASYRYTGVPDRFTGSGSGTDFTFTISSVQAEDLAVYYCQQYYIYPYTFGGGTKLEIK
notes: Intact murine monoclonal antibody from hybridoma; also called mu 2C4; ATCC HB-12697
